Source: article PMC3329556, “Insights into the Mechanism of Bovine CD38/NAD+Glycohydrolase from the X-Ray Structures of Its Michaelis Complex and Covalently-Trapped Intermediates” (PLoS ONE, 2012)

Substrate: NC(=O)c1ccc[n+]([C@@H]2O[C@H](COP(=O)(O)OP(=O)(O)OC[C@H]3O[C@@H](n4cnc5c(N)ncnc54)[C@H](O)[C@@H]3O)[C@@H](O)[C@H]2O)c1
Experiment: radiometric HPLC assay, initial rates, Michaelis-Menten fit
Format: biochemical, Bos taurus
Conditions: 10 mM potassium phosphate pH 7.4, 37°C, 14C-labelled NAD+ tracer
From the text: radiometric HPLC assay, initial rates, Michaelis-Menten fit on bCD38 (bovine CD38/NAD+glycohydrolase)

Protein	Km [µM]	kcat [s⁻¹]	kcat/Km [M⁻¹ s⁻¹]
bCD38 (bovine CD38/NAD+glycohydrolase) (Bos taurus) (protein, soluble ecto-domain residues 32-278 (first 31 residues removed), alpha-factor secretion signal, Pichia pastoris GS115 or X33, mono-N-glycosylated at Asn201, back-to-back homodimer in crystal) YKWHYSGLNRWHGAGSTADFQKIIQERCDTYTQTIRPGSRSRNCQAIRQAFMSAFISKDPCKATKEDYNSLINLAPPTVPCGQQVFWSKTKELAHEYAKRRRLMTLEDTLLGYLADGLRWCGEPGSSDLNIWSCPDWRKDCRTNYLSVFWEVLSERFAESACNTVRVVLNGSLENAFDSMSIFGRVEAPNLRPQVELEAWLVHDTGKPPSDSCSGSSIRKLKSILDGRNVKFRCMDNLSRDQFLQRS	17.1 ± 0.3	57.9 ± 1.9	3.38e+06 ± 130000
bCD38 (bovine CD38/NAD+glycohydrolase) (Bos taurus; E218Q) (protein, soluble ecto-domain residues 32-278 (first 31 residues removed), alpha-factor secretion signal, Pichia pastoris GS115 or X33, mono-N-glycosylated at Asn201, back-to-back homodimer in crystal) YKWHYSGLNRWHGAGSTADFQKIIQERCDTYTQTIRPGSRSRNCQAIRQAFMSAFISKDPCKATKEDYNSLINLAPPTVPCGQQVFWSKTKELAHEYAKRRRLMTLEDTLLGYLADGLRWCGEPGSSDLNIWSCPDWRKDCRTNYLSVFWEVLSERFAESACNTVRVVLNGSLENAFDSMSIFGRVQAPNLRPQVELEAWLVHDTGKPPSDSCSGSSIRKLKSILDGRNVKFRCMDNLSRDQFLQRS	24.7 ± 5.7	0.03 ± 0.002	1210 ± 300
bCD38 (bovine CD38/NAD+glycohydrolase) (Bos taurus; R216A) (protein, soluble ecto-domain residues 32-278 (first 31 residues removed), alpha-factor secretion signal, Pichia pastoris GS115 or X33, mono-N-glycosylated at Asn201, back-to-back homodimer in crystal) YKWHYSGLNRWHGAGSTADFQKIIQERCDTYTQTIRPGSRSRNCQAIRQAFMSAFISKDPCKATKEDYNSLINLAPPTVPCGQQVFWSKTKELAHEYAKRRRLMTLEDTLLGYLADGLRWCGEPGSSDLNIWSCPDWRKDCRTNYLSVFWEVLSERFAESACNTVRVVLNGSLENAFDSMSIFGAVEAPNLRPQVELEAWLVHDTGKPPSDSCSGSSIRKLKSILDGRNVKFRCMDNLSRDQFLQRS	22.9 ± 3.4	25.4 ± 1.1	1.1e+06 ± 170000
bCD38 (bovine CD38/NAD+glycohydrolase) (Bos taurus; W168A) (protein, soluble ecto-domain residues 32-278 (first 31 residues removed), alpha-factor secretion signal, Pichia pastoris GS115 or X33, mono-N-glycosylated at Asn201, back-to-back homodimer in crystal) YKWHYSGLNRWHGAGSTADFQKIIQERCDTYTQTIRPGSRSRNCQAIRQAFMSAFISKDPCKATKEDYNSLINLAPPTVPCGQQVFWSKTKELAHEYAKRRRLMTLEDTLLGYLADGLRWCGEPGSSDLNIWSCPDARKDCRTNYLSVFWEVLSERFAESACNTVRVVLNGSLENAFDSMSIFGRVEAPNLRPQVELEAWLVHDTGKPPSDSCSGSSIRKLKSILDGRNVKFRCMDNLSRDQFLQRS	24.6 ± 4.2	19.6 ± 0.9	800000 ± 140000
bCD38 (bovine CD38/NAD+glycohydrolase) (Bos taurus; K120A) (protein, soluble ecto-domain residues 32-278 (first 31 residues removed), alpha-factor secretion signal, Pichia pastoris GS115 or X33, mono-N-glycosylated at Asn201, back-to-back homodimer in crystal) YKWHYSGLNRWHGAGSTADFQKIIQERCDTYTQTIRPGSRSRNCQAIRQAFMSAFISKDPCKATKEDYNSLINLAPPTVPCGQQVFWSATKELAHEYAKRRRLMTLEDTLLGYLADGLRWCGEPGSSDLNIWSCPDWRKDCRTNYLSVFWEVLSERFAESACNTVRVVLNGSLENAFDSMSIFGRVEAPNLRPQVELEAWLVHDTGKPPSDSCSGSSIRKLKSILDGRNVKFRCMDNLSRDQFLQRS	27.7 ± 3.4	47.1 ± 2.1	1.7e+06 ± 220000
bCD38 (bovine CD38/NAD+glycohydrolase) (Bos taurus; S185A) (protein, soluble ecto-domain residues 32-278 (first 31 residues removed), alpha-factor secretion signal, Pichia pastoris GS115 or X33, mono-N-glycosylated at Asn201, back-to-back homodimer in crystal) YKWHYSGLNRWHGAGSTADFQKIIQERCDTYTQTIRPGSRSRNCQAIRQAFMSAFISKDPCKATKEDYNSLINLAPPTVPCGQQVFWSKTKELAHEYAKRRRLMTLEDTLLGYLADGLRWCGEPGSSDLNIWSCPDWRKDCRTNYLSVFWEVLAERFAESACNTVRVVLNGSLENAFDSMSIFGRVEAPNLRPQVELEAWLVHDTGKPPSDSCSGSSIRKLKSILDGRNVKFRCMDNLSRDQFLQRS	18.7 ± 2.8	38.2 ± 1.3	2.04e+06 ± 310000
